The values that follow come from article PMC4690510, “Crystal structure of a novel two domain GH78 family α-rhamnosidase from Klebsiella oxytoca with rhamnose bound” (Proteins, 2015).

Data set [1] addresses α-L-rhamnosidase from Klebsiella oxytoca (KoRha) (Klebsiella oxytoca KCTC 1686). The data set is described as follows: dynamic light scattering; purified KoRha in solution, DynaPro-Titan instrument, 20°C; hydrodynamic radius 4.8 nm.
Substrate in data set [2]: C[C@@H]1O[C@@H](Oc2ccc([N+](=O)[O-])cc2)[C@H](O)[C@H](O)[C@H]1O
As to the kind of experiment: purified protein. The format is biochemical, Klebsiella oxytoca. Conditions: 20 mM MES pH 5.0, 10% DMSO in substrate solution.

“α-L-rhamnosidase from Klebsiella oxytoca (KoRha) (enzyme)” returned a stoichiometry N in data set [1] of 2.

B1: KoRha (Klebsiella oxytoca) (protein)
chain: MSQAIQHNSQVMMTRHPNFLRTAEALRPALSRQAHPPIAVVEAHADAAALFGWRAEPVSTLAAFYQRELSSGDSVIIDFGSHYVGYLHFLCQSAGSPPDAPAHLQLTFGETLSEVCEPFSDYQGWLSSSWLQQQDLWLDVLPAEIDLPRRYCFRYLKVEVKAVSRKFRLQFTQIEVNAVTSASGACPAATTSDPQLRAIDNVAVLTLQNCMQEVFEDGPKRDRRLWLGDLRLQALVNDVTFARHDLVRRCLYLFAGHTREDGMVSANVFVQPDVIADDTFLFDYSLFFVDVLYNYLQSAEDMATARELWPTARRQVELALTRCDASGVVRDSDDWWVFIDWQASLNKQAAAQGVLIYCLQRAIWLAERFEPELAVSYRQRLQQLKSAALDALWDPQQGFYVSGARRQVSWASQIWLVLAEVGTPQQRREIMRNLEKNPPAVAMNTPYLRHHYIAALLQCGLRDEAIAQIKAYWGAMVDYGADTFWEIFDPAHPDFSPYGSKLINSYCHAWSCTPAWFIRQYGL
notes: synthetic codon-optimised gene in pET15b, E. coli BL21(DE3); residues 11-523 modelled
Regarding B1, in data set [2], the Km came out at 0.21 ± 0.02 mM and the kcat is 0.98 s⁻¹.
